From patent US20240124576A1 (SHANGHAI JEMINCARE PHARMACEUTICAL, published 2024) come the findings set out here.

Experiment [1] addresses T1, biotinylated human Siglec-15 protein (Acrobiosystems, Cat. No. SG5-H82E9) (human, UniProt Q6ZMC9 20-263, biotinylated).
T1 construct: Bought reagent; also called HS-15 Biotin; human S-15 Biotin
T1 sequence (looked up): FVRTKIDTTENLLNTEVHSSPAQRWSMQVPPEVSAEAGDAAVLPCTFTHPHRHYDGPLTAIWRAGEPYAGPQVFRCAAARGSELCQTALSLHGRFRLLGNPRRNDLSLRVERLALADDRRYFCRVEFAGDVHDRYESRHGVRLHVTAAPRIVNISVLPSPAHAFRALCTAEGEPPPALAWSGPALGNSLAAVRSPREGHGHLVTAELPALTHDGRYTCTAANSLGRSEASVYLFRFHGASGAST
The experiment in a line: flow cytometry of yeast-displayed Fab, 1 nM HS-15 Biotin 30 min, 2 h wash. The method, then: After sequencing analysis, the single clone with single sequence was identified by flow cytometry staining, incubated with 1 nM HS-15 Biotin for 30 min, respectively, and washed with 1 mL 1×PBSA for 2 h at room temperature; after flow cytometry analysis, the fluorescence intensity of different clones binding to antigen was compared.
In general terms: A flow cytometer gives signals particle by particle.

Experiment [2] has as its target T2, human Siglec-15 (Acro, Cat. No. SG5-H52H3) (human, UniProt Q6ZMC9 20-263).
T2 construct: Bought reagent used as the analyte in the Octet assay; also called antigen
T2 sequence (looked up): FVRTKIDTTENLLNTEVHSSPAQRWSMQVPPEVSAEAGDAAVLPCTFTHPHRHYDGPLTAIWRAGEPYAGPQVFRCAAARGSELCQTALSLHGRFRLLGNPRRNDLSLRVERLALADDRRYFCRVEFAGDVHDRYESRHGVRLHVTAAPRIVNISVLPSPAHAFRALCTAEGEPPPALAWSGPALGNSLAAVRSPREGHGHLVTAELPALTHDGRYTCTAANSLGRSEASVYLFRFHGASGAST
The experiment in a line: BLI (Octet RED96e), antibody captured on AHC sensor, 30 nM antigen, 1:1 fit; first assay. The method, then: (§1) Affinity of Siglec-15 binding protein of the present application to human Siglec-15 (Acro, Cat. No.: SG5-H52H3) was determined using Octet RED96e (Fortebio), both of the antigen and the Siglec-15 binding protein of the present application were diluted with 1×PBST (1×PBS: Sangon, B548117-0500; 0.02% Tween 20: Sigma-aldrich, P1379). The antigen is used at a concentration of 30 nM and the Siglec-15 binding protein of the present application is used at a concentration of 33.3 nM.
(§2) First, a sample was added to a 96-well plate (Greiner bio-one, 655209) in a system of 200 μL/well. Software parameters were then set, the plate temperature was set to 30° C., and the frequency at which the standard kinetic signal was collected was 5.0 Hz. Next, the AHC sensor (Fortébio, Cat. No.: 18-0015) was pre-wetted with 1×PBST for 10 min, then the sample was loaded on the machine for detection, with each cycle containing the following steps: 1) immersing the sample in buffer for 60 s; 2) detecting whether the antigen has non-specific binding to the sensor; 3) regenerating in a 10 mM glycine solution at pH 1.7; 4) immersing in buffer for 60 s; 5) immobilizing the Siglec-15 binding protein of the present application on the sensor for 20 s; 6) immersing the sensor in buffer for 180 s; 7) binding the antigen to the Siglec-15 binding protein of the present application for 180 s; 8) dissociating the antigen with Siglec-15 binding protein of the present application for 10 min; and 9) regenerating the sensor.
(§3) The equilibrium dissociation constant (KD) of the Siglec-15 binding protein of the present application was calculated by determining the binding rate constant (kon) and dissociation rate constant (kdis) of the antigen-Siglec-15 binding protein of the present application in a 1:1 binding manner using Data Analysis 12.0 software fromx Fortebio.
In general terms: In BLI a coated tip is dipped into the sample, and binding shifts an interference pattern.

For experiment [3], the target named is T3, extracellular domain of monkey Siglec-15 on monkey S15ECD-293T cells (monkey).
T3 chain: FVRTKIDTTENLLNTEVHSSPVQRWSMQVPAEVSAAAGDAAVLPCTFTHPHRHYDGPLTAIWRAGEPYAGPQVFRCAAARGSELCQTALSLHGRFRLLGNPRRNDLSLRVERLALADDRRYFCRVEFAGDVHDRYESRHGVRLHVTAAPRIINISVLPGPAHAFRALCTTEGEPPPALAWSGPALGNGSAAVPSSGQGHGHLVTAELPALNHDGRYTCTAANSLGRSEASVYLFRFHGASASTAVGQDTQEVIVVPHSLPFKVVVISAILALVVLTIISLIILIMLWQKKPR
The experiment can be described thus: flow cytometry on monkey S15ECD-293T cells, Alexa 488 secondary antibody.

In experiment [4] the target is T4, full length murine Siglec-15 on murine S15-CT26 cells (murine).
T4 construct: whole, on cells; also called murine Siglec-15 on the surface of a cell
The experiment can be described thus: flow cytometry on murine S15-CT26 cells, Alexa 488 secondary antibody.

Experiment [5] concerns the target T5, extracellular domain of human Siglec-15 with PDGFR transmembrane domain on human S15ECD-293T cells (human, UniProt Q6ZMC9 20-263; P09619 513-561).
T5 construct: range 20-263;range 513-561; also called human Siglec-15 on the surface of a cell
The experiment in a line: flow cytometry on human S15ECD-293T cells, Alexa 488 secondary antibody; Ab15 on human S15ECD-293T cells. The text has this:
(§4) The purified Siglec-15 binding protein of the present application was identified by flow cytometry for its function to bind to human S15ECD-293T cells of the present application. Human S15ECD-293T cells prepared by the methods of the present application can be expanded to 90% confluence in 15 cm cell culture dishes, media were pipetted completely, the cells were washed once with PBS buffer (Thermo Fisher, 10010049), then treated with enzyme-free cell dissociation buffer (Versene solution, Thermo Fisher, 15040066) and harvested. The cells were washed twice with PBS buffer and counted, the desired quantity of cells was removed for centrifugation, the cells were resuspended to 2×10^6 cells/ml with FACS buffer (PBS with 2% FBS). After incubation at room temperature for 15 min, the cell suspension was added to a U-shaped 96-well plate (Corning, 3798) at 50 μL/well. The Siglec-15 binding proteins of the present application were serially diluted in FACS buffer, the dilution was added to the above 96-well plate at 50 μL/well and incubated at 4° C. for 1 h. […] The cells were resuspended in 30 μL/well FACS buffer, and detected and analyzed by flow cytometry intellycite plus (Sartorius). […]

Experiment [6] has as its target T2, human Siglec-15 (Acro, Cat. No. …). The experiment in a line: BLI (Octet RED96e), antibody captured on AHC sensor, 30 nM antigen, 1:1 fit; third assay. The protocol:
as §1, §2, §3

For experiment [7] the target is unchanged. The experiment can be described thus: BLI (Octet RED96e), antibody captured on AHC sensor, 30 nM antigen, 1:1 fit; second assay. Set-up: Response value: unit not given here. The protocol:
as §1, §2, §3

For experiment [8], the target named is T5, extracellular domain of human Siglec-15 …. The experiment in a line: flow cytometry on human S15ECD-293T cells, Alexa 488 secondary antibody; Ab9 on human S15ECD-293T cells.
From the text: as §4

B1: Ab15 (clone YC44F5) displayed on yeast in the form of Fab (Fab, V domains shown)
VH: EVQLLESGGGLVQPGGSLRLSCAASGFTFSSYAMSWVRQAPGKGLEWVSTITGGGESTYYADSVKGRFTISRDNSKNTLYLQMNSLRAEDTAVYYCAKAIGSSWYSDAFDLWGQGTMVTVSS
VL: DIQMTQSPSSVSASVGDRVTITCRASQDISSWLAWYQQKPGKAPKLLIYVASYIHSGVPSRFSGSGSGTDFTLTISSLQPEDFATYYCQQSYSIPYTFGQGTKLEIK
As to B1, in experiment [1], the “Binding MFI” value was found to be 105 MFI and the “Binding force (Displaying MFI/Binding MFI) *10000” value is 409.

B2: Ab0, purified Siglec-15 binding protein in the form of IgG1 (antibody, V domains shown)
VH: EVQLLESGGGLVQPGGSLRLSCAASGFTFSSYAMSWVRQAPGKGLEWVSTISGGGGSTYYADSVKGRFTISRDNSKNTLYLQMNSLRAEDTAVYYCAKAIGSSWYSDAFDLWGQGTMVTVSS
VL: DIQMTQSPSSVSASVGDRVTITCRASQDISSWLAWYQQKPGKAPKLLIYVASSLQSGVPSRFSGSGSGTDFTLTISSLQPEDFATYYCQQSYSIPYTFGQGTKLEIKR
Take B2: in experiment [2], binding was put at a Kd of 0.109 nM, the koff (commonly the rate constant with which the complex falls apart) came to 3.24e-05 s⁻¹ and the kon (usually the second-order rate constant of association) was 298000 M⁻¹ s⁻¹.

B3: Ab15, purified Siglec-15 binding protein in the form of IgG1 (antibody, V domains shown)
VH: EVQLLESGGGLVQPGGSLRLSCAASGFTFSSYAMSWVRQAPGKGLEWVSTITGGGESTYYADSVKGRFTISRDNSKNTLYLQMNSLRAEDTAVYYCAKAIGSSWYSDAFDLWGQGTMVTVSS
VL: DIQMTQSPSSVSASVGDRVTITCRASQDISSWLAWYQQKPGKAPKLLIYVASYIHSGVPSRFSGSGSGTDFTLTISSLQPEDFATYYCQQSYSIPYTFGQGTKLEIKR
notes: Expressed in ExpiCHO cells in the form of IgG1
As for B3, the EC50 (commonly the concentration needed to bring the measured effect to its halfway point) in experiment [3] was found to be 0.475 nM. Also, in experiment [4], the EC50 came out at 1.83 nM. In experiment [5], the EC50 came to 0.475 nM. For the same molecule, in experiment [6], the Kd (in general, the constant that tells how readily two partners part at equilibrium) worked out at 0.0916 nM; the koff was 4.35e-05 s⁻¹; the kon was determined as 475000 M⁻¹ s⁻¹. In experiment [7], this molecule returned a Kd of 0.073 nM, a Response value of 0.361, a koff of 3.93e-05 s⁻¹ and a kon of 538000 M⁻¹ s⁻¹.

B4: Ab9, purified Siglec-15 binding protein in the form of IgG1 (antibody, V domains shown)
VH: EVQLLESGGGLVQPGGSLRLSCAASGFTFSSYAMSWVRQAPGKGLEWVSTISGGGGSTYYADSVKGRFTISRDNSKNTLYLQMNSLRAEDTAVYYCAKAIGSSWYSDAFDLWGQGTMVTVSS
VL: DIQMTQSPSSVSASVGDRVTITCRASQDISDWLAWYQQKPGKAPKLLIYVASSLQSGVPSRFSGSGSGTDFTLTISSLQPEDFATYYCQQSYSIPYTFGQGTKLEIKR
notes: as for B3
On to B4, for which the EC50 in experiment [3] is 0.922 nM; in experiment [4] it was 3.25 nM; in experiment [8] it was 1.52 nM. Further, the Kd in experiment [6] turned out to be 0.0691 nM; in experiment [7] it was 0.0873 nM. Further, the koff in experiment [6] amounted to 3.59e-05 s⁻¹; in experiment [7], 3.88e-05 s⁻¹. The kon was determined as 519000 M⁻¹ s⁻¹ in experiment [6] and 445000 M⁻¹ s⁻¹ in experiment [7]. In experiment [7], this molecule gave a Response value of 0.259.
